Experimental data as given in the RNAGym collection of RNA variant scans (doi:10.7554/elife.80360).

B1: Hammerhead Ribozyme (parent)
chain: ACCGGAUGUGCUUUCCGGUCUGAUGAGUCCGUGAGGACGAAACAG

Variants of: B1
Assay: self-cleavage, relative activity (ratio to wild type); higher = more cleavage; co-transcriptional

Variant	self-cleavage
ACCGGAUGUGCUUUCCGGUCUGAUGAGUCCGUGAAGACAAAACAG [G35A G39A]	0.312
ACCGGAUGUGCUUUCUGGUCUGAUGAGUCCGUGACGACGAAACAG [C16U G35C]	0.434
ACCGGAUGUGCUUUCCGGUCUGAUGAGCCCGUGUGGACGAAACAG [U28C A34U]	0.723
ACCGGAUGUGCUUUCCGGUCUCAUGAGUCCGUGAGGACGAAACCG [G22C A44C]	0.369
AGCGGAUGUGCUUUCCGGUCUGAUGAGUCCGUGAGGACGCAACAG [C2G A40C]	0.352
ACCGAAUGUGAUUUCCGGUCUGAUGAGUCCGUGAGGACGAAACAG [G5A C11A]	1.43
ACCGAAUGUGGUUUCCGGUCUGAUGAGUCCGUGAGGACGAAACAG [G5A C11G]	1.27
ACCGGAUGUGCUUUCCGGUCUGAUGAGCCCGUGAGGAUGAAACAG [U28C C38U]	1.01
ACCGGAUGUGCGUUCCGGUCUGAUGAGUCCGUGAGGGCGAAACAG [U12G A37G]	1.02
ACCGGAUGUGCUUUACGGUCAGAUGAGUCCGUGAGGACGAAACAG [C15A U21A]	0.415
ACCGGAUGUGCUUUCCGGUCUGGUGGGUCCGUGAGGACGAAACAG [A23G A26G]	0.327
ACCGGAUGUGCUUUCCGGUCUGAUGAGUCAAUGAGGACGAAACAG [C30A G31A]	1.12
AGCGGAUGUGCUUUCCGGUCUGAUGAGUCCGUGAGGACGAGACAG [C2G A41G]	0.369
ACCGGAUGUGCUUUCCGGUCUGAUGAGUACGUGGGGACGAAACAG [C29A A34G]	0.518
ACCGAAUGUGCUUUCCGGUCUGAUGAGUCCGUGAGGACGAGACAG [G5A A41G]	0.327
ACCGGAUGUGGGUUCCGGUCUGAUGAGUCCGUGAGGACGAAACAG [C11G U12G]	1.17
ACCGGAUGUGCUUUCCAGUCUGACGAGUCCGUGAGGACGAAACAG [G17A U24C]	0.88
UCCGGAUGUGCUUUCCGGUCUGACGAGUCCGUGAGGACGAAACAG [A1U U24C]	0.726
UCCGGAUGUGCUUUCCGGUCUGAAGAGUCCGUGAGGACGAAACAG [A1U U24A]	1.04
ACCGGAUGUGCUUUCCGGUCUGAUGGGUCCGUGAGGACGAAACAG [A26G]	0.379
ACCGGAUGUGCUUUCCUGUCUGAUGAGUCCGUGAGGACGAAACAA [G17U G45A]	0.436
ACCGGAUGUGCUUUCCGGUCAGAUGAGUCCGUGAGGGCGAAACAG [U21A A37G]	0.365
ACCGGAUGUGCUUUCCGGUCUGAUCAGUCCGUGAGGUCGAAACAG [G25C A37U]	0.286

Variant	self-cleavage
ACCGGAUGUGCUUUCCGGUCUGAUUAGUCCGUGAGGACGAGACAG [G25U A41G]	0.35
ACCGGAUGUGCUUUACGGUCUGAUGAGUCCGUGAGGACGAAGCAG [C15A A42G]	0.264
ACCGGAUGUGCUUUCCGUUCUGAUGAGUCCGUGGGGACGAAACAG [G18U A34G]	0.493
ACCGGAUGUGCUUUCCGGUCGGAUGAGUCCGAGAGGACGAAACAG [U21G U32A]	0.389
ACCGGAUGUGCUUUCCGGUCUUAUGAGUCCGUGAGGAUGAAACAG [G22U C38U]	0.335
ACCGGAUGUGCUUUCCGGUCUUAUGAGACCGUGAGGACGAAACAG [G22U U28A]	0.326
ACCGGAUGUGCUGUCCGGUCUGAUGAGUCCGUGAGGACGAACCAG [U13G A42C]	0.276
ACCGGAUGUGCUUUCCGGUUUGAUGUGUCCGUGAGGACGAAACAG [C20U A26U]	0.411
ACCGGAUGUGCUUUCCGGUCUGAUGAGUUCAUGAGGACGAAACAG [C29U G31A]	0.994
ACCGGGUGUGCUUUCCGGUCUGAUGAGUCCGUAAGGACGAAACAG [A6G G33A]	0.844
ACCGGAUGUGCUUUCCGGUCUGAUGAGUCCGUGAGGACGAGACGG [A41G A44G]	0.692
ACAGGAUGUGCUUUCCGGUCUGAUGAUUCCGUGAGGACGAAACAG [C3A G27U]	0.305
ACCGGAUGUGUUUUCCGGUCUGAUGAGUACGUGAGGACGAAACAG [C11U C29A]	0.329
ACCGGAUGUGCUUUCCGCUUUGAUGAGUCCGUGAGGACGAAACAG [G18C C20U]	0.339
ACCUGAUGUGAUUUCCGGUCUGAUGAGUCCGUGAGGACGAAACAG [G4U C11A]	0.502
UCCGGAUGUGCUUUCCGGUCUGAUGAGUCCGUGAGGACGAAUCAG [A1U A42U]	0.279
GCCGGAUGUGCUUUCCGGUCUGAUGAGUCCGUGAGGACGACACAG [A1G A41C]	0.461
ACCGGAUGUGCUUUCCGGUCUGAUGAUUCAGUGAGGACGAAACAG [G27U C30A]	0.317
ACCGGAUGUGCUUUCCGGUCUGAUGAGUCGGUGAGGGCGAAACAG [C30G A37G]	0.571
ACCGGAUGUGCUUCCCGGUCUGAUGAGUCCGUGAGGACAAAACAG [U14C G39A]	0.349
ACCGGAUGUGCUUUCCGGUCUGAUCAGUCCGUGAGGACGAAACAU [G25C G45U]	0.279
ACCGGAUUUGCUUUCCGGUCAGAUGAGUCCGUGAGGACGAAACAG [G8U U21A]	0.782
ACCGGAUGUGCUUUCCGGUCUGAGGAGUGCGUGAGGACGAAACAG [U24G C29G]	0.781

Variant	self-cleavage
ACCGGAUGUGCUUUCAGGUCUGAUGAGUCCGUGAGGACGAUACAG [C16A A41U]	0.37
ACAGGAUGUGCUUUCCGGUCUGAUGAGCCCGUGAGGACGAAACAG [C3A U28C]	0.354
ACCGGAUGUGCUUUCCGGUCUAAUGAGUCCGUGAGGCCGAAACAG [G22A A37C]	0.304
ACCGGCUUUGCUUUCCGGUCUGAUGAGUCCGUGAGGACGAAACAG [A6C G8U]	0.633
ACCGGAUGUGUUUUCCGGUCUGAUGAGACCGUGAGGACGAAACAG [C11U U28A]	0.768
ACCGGAGGUGCUUUCCGGUCUGAUGAGUCCGUGGGGACGAAACAG [U7G A34G]	1.67
ACCGGAUGUGCUUUUCGGUCUGAUGAGUCCGUGUGGACGAAACAG [C15U A34U]	0.843
ACCGGAUGUGCUUUCCGGUCUGAUCAGCCCGUGAGGACGAAACAG [G25C U28C]	0.309
ACCGGACGUGCUUUCCGGUCUGAUGCGUCCGUGAGGACGAAACAG [U7C A26C]	0.373
ACCGGAUGUCCUUUCCGGUCUGAUGAGACCGUGAGGACGAAACAG [G10C U28A]	0.381
ACCGGAUGCGCUUUCCGGUCUGAUGAGUCCGUGAGUACGAAACAG [U9C G36U]	0.683
ACCGUAUGUGCUUUCCGGUCUGAUGAGUCCUUGAGGACGAAACAG [G5U G31U]	1.2
ACCGGAUGUACUUUCCGGUCUGAUAAGUCCGUGAGGACGAAACAG [G10A G25A]	0.365
ACCGGAUGUGCUUUUCGGUCUGAUGAGUCCGUGAGGACGACACAG [C15U A41C]	0.368
ACCGGAUGUGCUUUCCGGUCUGAUGAGUUCGUGAGGACGGAACAG [C29U A40G]	0.389
ACCGCAUGUCCUUUCCGGUCUGAUGAGUCCGUGAGGACGAAACAG [G5C G10C]	0.441
ACCGGAUGUGCUUUCCUAUCUGAUGAGUCCGUGAGGACGAAACAG [G17U G18A]	0.419
ACCGGAUGUGCUUUCCGGUCAGAUGAGUCCGUGAGGACGAACCAG [U21A A42C]	0.382
ACCGGAUGUGCUUUCCGGGCUGAUGAGUCCGUGAGGAGGAAACAG [U19G C38G]	0.354
ACCGGAUGUGCUUUCCGGGCUGAUGAGUCCGUGAGGAAGAAACAG [U19G C38A]	0.324
ACCGGAUGUGCUUUCCGGUCUGAUGAGUACGUGAUGACGAAACAG [C29A G35U]	0.727
ACCGGAUGGGCUUUCCGGUCUGAUGAGUCCAUGAGGACGAAACAG [U9G G31A]	1.14
ACCGGAUGUGCUUUCCGGUCUAAUCAGUCCGUGAGGACGAAACAG [G22A G25C]	0.329

Variant	self-cleavage
ACCGGAUGUGCUUUCCGGUCUGAUGAGUUCGUGAGGACGAAUCAG [C29U A42U]	0.367
AGCGAAUGUGCUUUCCGGUCUGAUGAGUCCGUGAGGACGAAACAG [C2G G5A]	0.295
ACCGGAUGUCCUUUCCGGUCUGAUGAGUCCGCGAGGACGAAACAG [G10C U32C]	1.3
AACGGAUGUGCUUUCCGGUCUGAUGAGUCCGCGAGGACGAAACAG [C2A U32C]	0.632
ACCGGAAGUGCUUUCCGGUCUGAGGAGUCCGUGAGGACGAAACAG [U7A U24G]	0.882
ACCGGAUGUGCUUCCCGGUCUGAUGAGUCAGUGAGGACGAAACAG [U14C C30A]	0.7
ACCGGAUGUGCUUUCCGAUCUGUUGAGUCCGUGAGGACGAAACAG [G18A A23U]	0.345
ACCGGAUGUGCUUUCCGGUCUGAUGAGUCCAUGAUGACGAAACAG [G31A G35U]	0.875
ACCGGAUGUUCUUUCCGGUCUGAUGAGUCCGUGAGGAGGAAACAG [G10U C38G]	0.848
ACCGGAUGUGCUUUCCGGUCUGAUGGGUCCGUGAGGCCGAAACAG [A26G A37C]	0.252
ACCGGAUGUGCUUUCCGGUCUGAUGAGUCCGUGAGGACGAACCAG [A42C]	0.373
ACCGGAUGUGCUUUCCGGUCUGAUGAGUCGGUGAAGACGAAACAG [C30G G35A]	1.06
ACCGGAUGUGCUUUCCGGUCUCAUGAGUCCAUGAGGACGAAACAG [G22C G31A]	0.25
ACCGGAUGUGCUUUCCGGGCUGAUGAGUCCGUGAGGACGAAAUAG [U19G C43U]	0.336
ACCGGAUGUGCUUUGCGGUCUGAUGCGUCCGUGAGGACGAAACAG [C15G A26C]	0.321
ACCGGAUGUGCUUUCCGGUCUUAUGAGUCCGUGAGGACGAAGCAG [G22U A42G]	0.285
ACCGGGUGUGCUUUCCGGGCUGAUGAGUCCGUGAGGACGAAACAG [A6G U19G]	0.264
ACCGGAUGUGCUUUCCGGUCUGAUGAGUCCGUGAGGCCGACACAG [A37C A41C]	0.285
ACCGGAUGUGCUUUCCGGUCGGAUGAGUCCGUCAGGACGAAACAG [U21G G33C]	0.867
ACCGGAUGUGGUUUCCGGUCUGAUGAGUCCGUGAGUACGAAACAG [C11G G36U]	0.69
ACCGGAUGUGCUUUCCGGGCUGAUGAGUCCUUGAGGACGAAACAG [U19G G31U]	0.451
ACCGGAUGUGCUUUCCGGUCUGAUGAAUCCGUAAGGACGAAACAG [G27A G33A]	1.1
ACCGGCUGUGCUUUCCGGUCUGAUGAGUCCGUGAGGACGAAACAG [A6C]	0.722

Variant	self-cleavage
ACCGGAUGUGCUUUCCGGUCUGAUGAGUCCGUGACGUCGAAACAG [G35C A37U]	0.517
ACCGGAUGUGCUUUCCGGUCUGAUGAGUCCGCGAGGACGAUACAG [U32C A41U]	0.474
ACCGGAUGUGCUUUCCGGUCUGAUGAGUCCGUGAGCACGAAAUAG [G36C C43U]	0.308
ACCUGAUGUGCUUUCCGUUCUGAUGAGUCCGUGAGGACGAAACAG [G4U G18U]	0.323
ACCGGUUGUGCUUUCCGGUUUGAUGAGUCCGUGAGGACGAAACAG [A6U C20U]	0.454
ACCGGAUGUGCUUUCCGGUCUGGUGAGUCCGUGAGGACUAAACAG [A23G G39U]	0.347
ACCGGAUGUGCUUUCCCGUCUGAUGAGUCAGUGAGGACGAAACAG [G17C C30A]	0.458
ACCGGAUGUCCUUUCCGGUCUGAUGAGUCCGUGAGGACGAAACCG [G10C A44C]	0.61
ACCGGAGGUGCUAUCCGGUCUGAUGAGUCCGUGAGGACGAAACAG [U7G U13A]	1.66
AGCGGAUGUGCUUUCCGGUCUGAUGAGUCCGUGAGUACGAAACAG [C2G G36U]	0.325
ACCGGAUUUGCUUUUCGGUCUGAUGAGUCCGUGAGGACGAAACAG [G8U C15U]	1.05
ACCGGAUGUGCUUUCCUGUCGGAUGAGUCCGUGAGGACGAAACAG [G17U U21G]	0.387
ACCGGAGGUGCUUUCCGGUCUGAUGAGUCCGUGAGGACGAGACAG [U7G A41G]	0.408
ACCGCAUGUGCUUUCCGGUCUGAUGAGUCCGUGAGGACGUAACAG [G5C A40U]	0.23
ACCGGAUGUGCUUUCCGGUCUGAUUCGUCCGUGAGGACGAAACAG [G25U A26C]	0.288
ACCGGAUAUGCUUUCCGGUCUGAUGAGUCCGUGAGGACGAAUCAG [G8A A42U]	0.297
ACCGGAGGUGCUUUCUGGUCUGAUGAGUCCGUGAGGACGAAACAG [U7G C16U]	1.4
ACCGGAUGUGCUUUCCGGUCUGAUGAGUCCGUGAGGACCAACCAG [G39C A42C]	0.355
ACCGGAUGUGCUUUCCCGUCUAAUGAGUCCGUGAGGACGAAACAG [G17C G22A]	0.274
ACCGGAUGAGCUGUCCGGUCUGAUGAGUCCGUGAGGACGAAACAG [U9A U13G]	1.1
ACCGGAUGUGCUUUCCGGUCUCAUGAGUCCGUGAGGACGGAACAG [G22C A40G]	0.351
ACCGGAUGUGCUUACCGGUCUGAUGAGUCCGUAAGGACGAAACAG [U14A G33A]	0.751
